Results as given in paper PMC12693483, “A screen for synthetic genetic interactions with the Saccharomyces cerevisiae hrq1ΔN allele”.

Molecular target: T1, Hrq1 (Saccharomyces cerevisiae, UniProt Q05549 1-1077)
T1 sequence: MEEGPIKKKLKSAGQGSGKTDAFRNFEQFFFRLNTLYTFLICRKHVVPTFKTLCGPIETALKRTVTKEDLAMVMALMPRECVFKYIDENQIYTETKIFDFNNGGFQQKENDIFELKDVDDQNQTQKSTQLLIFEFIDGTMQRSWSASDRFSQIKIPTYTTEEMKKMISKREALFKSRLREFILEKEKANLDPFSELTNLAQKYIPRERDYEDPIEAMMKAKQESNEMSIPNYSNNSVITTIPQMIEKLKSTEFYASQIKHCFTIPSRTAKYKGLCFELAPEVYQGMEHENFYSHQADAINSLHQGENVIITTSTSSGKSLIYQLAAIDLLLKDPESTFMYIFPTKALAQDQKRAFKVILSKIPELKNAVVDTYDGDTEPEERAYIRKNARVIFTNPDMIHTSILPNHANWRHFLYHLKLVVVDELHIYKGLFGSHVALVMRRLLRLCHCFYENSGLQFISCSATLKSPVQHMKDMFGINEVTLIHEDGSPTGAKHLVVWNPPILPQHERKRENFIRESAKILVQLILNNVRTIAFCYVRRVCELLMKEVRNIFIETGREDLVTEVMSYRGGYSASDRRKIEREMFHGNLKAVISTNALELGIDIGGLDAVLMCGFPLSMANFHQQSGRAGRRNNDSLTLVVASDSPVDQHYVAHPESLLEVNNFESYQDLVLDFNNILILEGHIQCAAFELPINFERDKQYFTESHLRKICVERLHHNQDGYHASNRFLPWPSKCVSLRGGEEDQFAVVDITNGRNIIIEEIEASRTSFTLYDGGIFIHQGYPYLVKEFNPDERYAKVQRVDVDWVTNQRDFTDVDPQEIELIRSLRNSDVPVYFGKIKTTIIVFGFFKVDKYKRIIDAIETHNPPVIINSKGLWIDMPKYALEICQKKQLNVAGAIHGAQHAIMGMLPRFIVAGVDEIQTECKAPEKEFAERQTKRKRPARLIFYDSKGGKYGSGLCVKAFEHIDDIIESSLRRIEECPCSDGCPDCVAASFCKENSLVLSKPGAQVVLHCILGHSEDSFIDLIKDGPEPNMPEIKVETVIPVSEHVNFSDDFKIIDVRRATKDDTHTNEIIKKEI
Assay: EMSA; 0.2-5 nM protein; 7.5 mM MgOAc; no ATP stated; EMSA: 0.1 nM labelled DNA, 25 mM Na-HEPES pH 8.0, 5% glycerol, 50 mM NaOAc pH 7.6, 150 µM NaCl, 7.5 mM MgOAc, 0.01% Tween-20, 30 min at 30 °C; 8% 19:1 gel in 1x TBE
Conditions: protein: recombinant; label: 5'-32P; single strand

## TTTTTTTTTTTTTTTTTTTTTTTTTTTTTT (ssDNA) [poly(dT) 30mer]
  binding result: binds
